The values that follow come from the DeepSol protein solubility set.

The nature of the data set: soluble on expression in E. coli; label from the status in PepcDB or PDB records.
In the case of “MGDTMQQRLTQDLTQFLASLPEDDRIKAINEIRMAIHQVSPFREEPVDCVLWVKNSQLMPNDYNPNNVAPPEKKLLQKSIEIDGFTQPIVVTHTDKNAMEIVDGFHRHEIGKGSSSLKLRLKGYLPVTCLEGTRNQRIAATIRHNRARGRHQITAMSEIVRELSQLGWDDNKIGKELGMDSDEVLRLKQINGLQELFADRQYSRAWTVK”, the “soluble on expression in E. coli” value was “soluble”.

For the sequence “MGEELNRLLDVLGNETRRRILFLLTKRPYFVSELSRELGVGQKAVLEHLRILEEAGLIESRVEKIPRGRPRKYYMIKKGLRLEILLTPTLFGSEMYEAKGVRKSPEYEQAKELIKSQEPINVKMRELAEFLHELNERIREIIEEKRELEEARILIETYIENTMRRLAEENRQIIEEIFRDIEKILPPGYARSLKEKFLNINI”, the “soluble on expression in E. coli” value is on record as “soluble”.

Turning to “MGEGIGRVFFLKDEVGFQPLSNHQGLVVKLLESWREGDEPLALSPKTKERLLLAARYHDDGKRFTFHIVPDGKGGLTYSFRGHRFRVAQAVQDPYAQALIRGHHDYSTREVVNLAADFLEEGLGHRFPEDLFLLMMADQLEAELAVRLWQRRAGEVRPFVEFDLLPDGEGGFLLDPWPFRVDEVALDFLVYFHPYRGEEAKVVEGWGRALVGALEEGKVPEAFREEKRRVRLRPWAAGARKADDPEAFYDRFGLKPTPFQREVFKVAEGDPAHLLLAPTGTGKTEAAAFPALARGERLVFVLPTRSLVDDLEGRFRCYLKILAQEEGRPKALVVDTGHRQARFRFSPDGQEEATKERHLYHADVILTTLDKLLYRYFGYAEGVKSYTFPRRIHDRRTLFVFDEVHLYEATAWVNFRHLIASLYKAGVRFLVMSATMPGTYREELLLEGTLEHPAAKRPSRVLRYMPQGNPMEIIQSHRGKRVLVVLEEVKEAAELYKRLKGEGVFLYHGRLAEGQRRRVFGEVKRRDKAQEPYLLITTPAIEVGVDLDAEVLVTTLCPPENLLQRLGRVNRRGGGQGEAYVVGETYPDYLGSLPEGYLELLKALDGQDLAQGGEERLRQAIRYPKYLDPRAETFFEALQDYVYGLDLTQEPLHRKGFVATRGWTPSVRLRQGEDEVEVPIDRLVGRKEELTPVRVVERLLTDGETGNRRREEVPLRSGELYGRELVLNYPYPYDPELGFVELPKVFQRLRHPDPQRVQLLYAPEKDAGEAPEGVMDTDQVTGGGRRVLWYLGESAWAEPAKSGEVAEETEEEEEEGD”, the “soluble on expression in E. coli” value is reported as “soluble”.

Turning to “MGEIQTLNEQHSVGKPVIRLSGISKSFDGKEIIGNLNLDVNHGEFLTILGPSGCGKTTVLRMIAGFETADQGQILLDDQDVTQVPAEQRHVNTVFQSYALFPHMTVFENVAFGLRMQKVPQSEIEPRVMEALRMVRLAEMAQRKPHQLSGGQQQRIAIARAVVNKPKVLLLDESLSALDYKLRKQMQSELKQLQRQLGITFIFVTHDQEEALSMSDRIIVMRSGKIEQDGSPREIYEDPKNLFVARFIGEINVFQATTIDRIDEKRIRVDIEGIESIVYYEDEVKAGDKLQVLLRPEDLRIEEIKESEEKGIVGHVTDRTYKGMTLESVVELESGMCVMVSEFFNEDDPDVDHSIGQKVAVTWVESWEVVLNDEQKA”, the “soluble on expression in E. coli” value is “not soluble”.

As for “MGEVQREKVAVIIGPTAVGKTKLSIDLAKALNGEIISGDSMQIYRTMDIGTAKVTKAEMDGIPHYMIDIKNPEDSFSVAEFQERVRKHIREITERGKLPIIVGGTGLYIQSVLFDYQFTDDAGDVIYREQREKLALERGVEYVHEKLQEVDPESAERIHANNVRRVIRALEIFHTTGEKMSEQIEKQEKELLYDVSLIGLTMDREMLYDRINLRVDLMMEQGLLEEVEGLYNRGIRDCQSIQAIGYKEIYDYFENRASLEDAVSQLKTNSRRYAKRQLTWFRNKMDVTWFDVTDGEKTSEILRYIEGKLQVKSNNSK”, the “soluble on expression in E. coli” value is “not soluble”.

Consider “MGEVRVVGIRVEQPQNQPVLLLREANGDRYLPIWIGQSEAAAIALEQQGVEPPRPLTHDLIRDLIAALGHSLKEVRIVDLQEGTFYADLIFDRNIKVSARPSDSVAIALRVGVPIYVEEAVLAQAGLLIPDESDEEATTAVREDEVEKFKEFLDSVSPDDFKAT”, for which the “soluble on expression in E. coli” value is recorded as “soluble”.

“MGFEDGFYTILHLAEGQHPNSKIPGGMYASSKDGKDVPVTAEPLGPQSKIRWWIARDPQAGDDMYTITEFRIDNSIPGQWSRSPVETEVPVYLYDRIKAEETGYTCAWRIQPADHGADGVYHIVGNVRIGSTDWADLREEYGEPQVYMKPVPVIPNVYIPRWFILGYEE”: the “soluble on expression in E. coli” value is given as “soluble”.

“MGFFNFIKTVGEKLGIGDSEPTEKDFKTAFDNFQLGTEKVNIQVENGKVVLSGEVPDRETLEKALLVVGNAQGISSVDIGQLKVADTACMKASRFYEVKSGDNLWKIAEEVYGKGQGDKNTFIFEANKPMLKSPDKIYPGQVLRIPEIDRA”: the “soluble on expression in E. coli” value is reported as “not soluble”.

Turning to “MGFHPIELRIQILGLSAFGVDSKEIAAALDVPVRSVQRIIQRAKERGFDPATDPRVKMEYVEDAERSGRPKKGSKVMAAKSQAGSTSGSESVVAAGSEVGDGNRNSMPEAQA”, the “soluble on expression in E. coli” value is “not soluble”.

For “MGFIMEFAENLVLRLMENPEERDRKAREHIYEMHERCKKIKEMWALPIRPYGFWTFERHNAQLRWDPQISQVAGRRDPYDDLLEDNYTPPSSSSSSSD”, the “soluble on expression in E. coli” value is recorded as “soluble”.

Turning to “MGFKTVAKEEKQQLVANVFHSVAAKYDLMNDLLSFGIHRIWKRFTIDCSGVRKGQKVLDLAGGTGDFSAKFSRIVGETGQVVLADINSSMLEVGRDKLRNLGVVGNINYVQANAEHLPFADNTFDCVVISFGLRNVTDKDKALKSMYRVLKPGGRLLVLEFSKPIFDPISQLYNFYSFNILPKVGGIVVNDAESYRYLAESIRMHPKQDELKTMMEHAGFESVNYYNLSAGIVALHRGYKLEHHHHHH”, the “soluble on expression in E. coli” value is reported as “not soluble”.

On to “MGFLNKLLSSEGPRKPKVKFDLQKCKVLLKGGENRIRLQKSKLAVCNLLASPVPALKNLFNKNSVKLQQREVAVLLEGGKDELARIRAEQMVRDELLIESYEIVEVLCETLLTRHNLLALNFHATKENPYPPLPPEIAEAVCSIAFASCRLDASELQTLTEMLASRFGPELIDSACAGQPSQRVWGVNSLVNPRLYSKLLYSVPDGNVVLQKLQDIADMFQLEWKAPAEFEELKDHSVLDSTASTPVFSGNAQRARYLPEASSFSDEKIGDDVFCTNESEQTEEGRDPSDDLSARLEALKRNR”, for which the “soluble on expression in E. coli” value is on record as “not soluble”.

In the case of “MGFMIEHWDFSTPMATQETTTAEHIQPNHWYHCERLHPDIRSWLEDNHVPRATVDHLLADESRPSFHPLDDDNFMLILRGINMNENASPEDMLSIRILYFQGALISTRKIPSRAIMEIRQALAEHKGPKSLASLLNQIIEGLNGKIDLYLDTIEETLNEFDVNDESTYNHIAAQKALISIKRFIRPQQYAIRDLIESESELVTSRPHQYRFAHNNITRINETIEFYLGEVALFQDEIKHNRDEKTNKNSYLFTLVATIFLPTSFLTGLL”, the “soluble on expression in E. coli” value is given as “not soluble”.

With “MGFQLRGDYLLDDDLQTLYVSSSDIHGELTRLVKLNLTRNQVNVLKHSKADVPELRILSDKLDRRTLSLFSNGQVAEYELIYSVHYQVRFTGEDARDFRFELYRDYQDDPNIALAKSRELSLLLSEMRTSAADKILRDLARIQRLEHHHHHH”, the “soluble on expression in E. coli” value is “soluble”.

As to “MGGDRAPDEILKGALLASKEVEGEIVLIGPEEIVKNKGLPFVSASEIVKMDDPPLEVLRKKNSSMHMGLKLLSEGKVDAFVSAGATGPLFLGATSIVGKLEGIERPALGVAVPSLKGATVLIDAGANAKVRPEHLVDFAFMGIAYSKVLGAENPRVGLLNMGSEENKGPDDIKRAYQLLKEFLGDTFFGNVEGHDINLGTVDVVVADGFSGNVALKTMEGTAKLVTSVLKESIKDGGFLSLLGALLMKRSFDKMKEKLDPRSYGGTFILGVKGIVVKAHGSSDAKAIKHAIKVAEKGIRVNIVQEIERGISHVRNSGDGR”, the “soluble on expression in E. coli” value is listed as “soluble”.

For “MGGKSNGEKKYIVGFKQGFKSCAKKEDVISEKGGKLQKCFKYVDAASATLNEKAVEELKKDPSVAYVEEDKLYRALSATS”, the “soluble on expression in E. coli” value is listed as “soluble”.

For the sequence “MGGMDTGVTSPRVLVVDDDSDVLASLERGLRLSGFEVATAVDGAEALRSATENRPDAIVLDINMPVLDGVSVVTALRAMDNDVPVCVLSARSSVDDRVAGLEAGADDYLVKPFVLAELVARVKALLRRRGSTATSSSETITVGPLEVDIPGRRARVNGVDVDLTKREFDLLAVLAEHKTAVLSRAQLLELVWGYDFAADTNVVDVFIGYLRRKLEAGGGPRLLHTVRGVGFVLRMQ”, the “soluble on expression in E. coli” value is listed as “soluble”.

In the case of “MGGPGETQIEADRRLLQDRIVKLEKELEQVVRTRQLHRAKRRKVPHPIVALVGYTNAGKSTLFNRITGAGVLAEDMLFATLDPTLRRMKLPHGRTVILSDTVGFISDLPTHLVAAFRATLEEVLEADLVLHVRDMSDPDNAAQSADVLRILGDLGIDEKEAEKRIIEVWNKVDRLEPEAHDAIMQRAEGRSDIRAVSAITGEGVDALMEEISKRLSGVLTETTVVLSVEQLPLISWVYSNSIVDNREDHEDGSVALDVRLSEAQAVELERKLGKTAGREREDWERAAALEHHHHHH”, the “soluble on expression in E. coli” value is “not soluble”.

Turning to “MGGSHHHHHHGMASALATRQRESSITSCCSTSSCDADDEGVRGTCEDASLCKRFAVSIGYWHDPYIQHFVRLSKERKAPEINRGYFARVHGVSQLIKAFLRKTECHCQIVNLGAGMDTTFWRLKDEDLLPSKYFEVDFPMIVTRKLHSIKCKPPLSSPILELHSEDTLQMDGHILDSKRYAVIGADLRDLSELEEKLKKCNMNTQLPTLLIAECVLVYMTPEQSANLLKWAANSFERAMFINYEQVNMGDRFGQIMIENLRRRQCDLAGVETCKSLESQKERLLSNGWETASAVDMMELYNRLPRAEVSRIESLEFLDEMELLEQLMRHYCLCWATKGGNELGLKEITY”, the “soluble on expression in E. coli” value is “not soluble”.

Regarding “MGGSHHHHHHGMASGKSDFLTPKAIANRIKSKGLQKLRWYCQMCQKQCRDENGFKCHCMSESHQRQLLLASENPQQFMDYFSEEFRNDFLELLRRRFGTKRVHNNIVYNEYISHREHIHMNATQWETLTDFTKWLGREGLCKVDETPKGWYIQYIDRDPETIRRQLELEKKKKQDLDDEEKTAKFIEEQVRRGLEGKEQEVPTFTELSRENDEEKVTFNLSKGACSSSGATSSKSSTLGPSALKTIGSSASVKRKESSQSSTQSKEKKKKKSALDEIMEIEEEKKRTARTDYWLQPEIIVKIITKKLGEKYHKKKAIVKEVIDKYTAVVKMIDSGDKLKLDQTHLETVIPAPGKRILVLNGGYRGNEGTLESINEKTFSATIVIETGPLKGRRVEGIQYEDISKLA”, the “soluble on expression in E. coli” value is “not soluble”.

As to “MGGSHHHHHHGMASWPPPRCPLGVPLVLDGCGCCRVCARRLGEPCDQLHVCDASQGLVCQPGAGPGGRGALCLLAEDDSSCEVNGRLYREGETFQPHCSIRCRCEDGGFTCVPLCSEDVRLPSWDCPHPRRVEVLGKCCPEWVCGQGGGLGTQPLPAQGPQFSGLVSSLPPGVPCPEWSTAWGPCSTTCGLGMATRVSNQNRFCRLETQRRLCLSRPCPPSRGRSPQNSAF”, the “soluble on expression in E. coli” value was “not soluble”.

For “MGGSVAAQDEFYRSGWALNMKELKLLQTIGKGEFGDVMLGDYRGNKVAVKCIKNDATAQAFLAEASVMTQLRHSNLVQLLGVIVEEKGGLYIVTEYMAKGSLVDYLRSRGRSVLGGDCLLKFSLDVCEAMEYLEGNNFVHRDLAARNVLVSEDNVAKVSDFGLTKEASSTQDTGKLPVKWTAPEALREKKFSTKSDVWSFGILLWEIYSFGRVPYPRIPLKDVVPRVEKGYKMDAPDGCPPAVYEVMKNCWHLDAAMRPSFLQLREQLEHIKTHELHL”, the “soluble on expression in E. coli” value is on record as “soluble”.

As to “MGHAKHLIDGNIETFWHSRWQGGSDPLPYEIIIDMNHRVKIAQIELLPRGRGSNNPIKVVRFEASEDGTNWESIGQFGFTNQDAALKYYVKSSTARYIKLVIPDGVGNGTVAAIRELDVRGTVVNLEHHHHHH”, the “soluble on expression in E. coli” value is given as “not soluble”.
